Here are results for 41 sequences from the nanobody polyreactivity screen of Harvey et al. (2022).

The series can be described thus: yeast display, Sf9 membrane polyspecificity reagent, FACS + sequencing; frameworks hold sequencing errors. Put shortly:
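Polyreactivity labels are assigned by the sorting gate from which each nanobody was recovered. The gates were low and high (top ~1%), set on anti-HA fluorescence for expression and streptavidin fluorescence for reagent binding. Before sorting, galactose-induced (36–48 hours) yeast display cells were stained for 1 hour at 4 °C with 10% biotinylated, detergent-solubilized Sf9 membrane reagent.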
For the sequence “QVQLVESGGGLVQAGGSLRLSCAASGSTFSGYAMGWYRQAPGKERELVAAITLGGGSTYYADSVKGRFTISRDNAKNTVYLQMNSLKPEDTAVYYCAAGDIYYAEYDYWGQGTQVTVSS”, the “polyreactivity (PSR sort gate)” value is “low polyreactivity”.
As for “QVQLVESGGGLVQAGGSLRLSCAASGSTFSGYAMGWYRQAPGKERELVAAITSGGGTYYADSVKGRFTISRDNAKNTVYLQMNSLKPEDTAVYYCAADGIARAYVLLDAYDFLYDYWGQGTQVTVSS”, the “polyreactivity (PSR sort gate)” value is “low polyreactivity”.
Under “QVQLVESGGGLVQAGGSLRLSCAASGSTFSGYTMGWYRQAPGKEREFVAAISVSGGSTYYADSVKGRFTISRDNAKNTVYLQMNSLKPEDTAVYYCNTVTSGFLSYDYWGQGTQVTVSS” stands “high polyreactivity”.
Regarding “QVQLVESGGGLVQAGGSLRLSCAASGSTFSGYVMGWYRQAPGKERELVAAISSSGGGSTYYADSVKGRFTISRDNAKNTVYLQMNSLKPEDTAVYYCAARNYRKYDYWGQGTQVTVSS”, the “polyreactivity (PSR sort gate)” value was “high polyreactivity”.
As to “QVQLVESGGGLVQAGGSLRLSCAASGSTFSHNTMGWYRQAPGKERELVAAISSRGSSTYYADSVKGRFTISRDNAKNTVYLQMNSLKPEDTAVYYCAARYLRGTWAGLGYDYWGQGTQVTVSS”, the “polyreactivity (PSR sort gate)” value was “low polyreactivity”.
Regarding “QVQLVESGGGLVQAGGSLRLSCAASGSTFSHYAMGWYRQATGKERELVAAISKSGGITYYADSVKGRFTISRDNAKNTVYLQMNSLKPEDTAVYYCNARWSWRGTRYDYGYWGQGTQVTVSS”, the “polyreactivity (PSR sort gate)” value was “low polyreactivity”.
On to “QVQLVESGGGLVQAGGSLRLSCAASGSTFSIYAMGWYRQAPGKERELVAAISFSDASTYYADSVKGRFTISRDNAKNTVYLQMNSLKPEDTAVYYCAAVVGAFKRRFYYWGQGTQVTVSS”, for which the “polyreactivity (PSR sort gate)” value is “high polyreactivity”.
In the case of “QVQLVESGGGLVQAGGSLRLSCAASGSTFSIYAMGWYRQAPGKERELVADITANGGSTYYADSVKGRFTISRDNAKNTVYLPMNSLKPEDTAVYYCAADAKSFDAVHYDYWGQGTHVTVSS”, the “polyreactivity (PSR sort gate)” value was “low polyreactivity”.
As for “QVQLVESGGGLVQAGGSLRLSCAASGSTFSIYARGWYRPAPGKERELVAAISYSDGTTYSADSVKGRFTISRDNAKNTDYVQMNSLKPEDTAVYYCATQQIWTSWYDRFDYWGQGTQVTVSS”, the “polyreactivity (PSR sort gate)” value was “low polyreactivity”.
On to “QVQLVESGGGLVQAGGSLRLSCAASGSTFSKNAMGWNRQAPGKERELFAAIRSRGGSTYYADSVKGRFTISRDNAKNTVYLQMNSLKPEDTAVYYCNKVRAYECDYWGQGTKVTVSS”, for which the “polyreactivity (PSR sort gate)” value is “high polyreactivity”.
Under “QVQLVESGGGLVQAGGSLRLSCAASGSTFSKYTMGWYRQAPGKERELVAAISVSVGRTYYADSVKGRFTISRDNAKNTVYLQMNSLKPEDTAVYYCAAAYSGLYYWGQGTQVTVSS” stands “high polyreactivity”; under “QVQLVESGGGLVQAGGSLRLSCAASGSTFSLNAIGWFRQAPGKERQLVAAITGRGTRTYYADSVKGRFTLSRDNAKNTVYLQMNSLKPEDTAVYYCAKDYPRGSPYGYNYWGQGTQVTVSS”, “high polyreactivity”; under “QVQLVESGGGLVQAGGSLRLSCAASGSTFSLYAMGWYRQAPGKERELVAAINSGTSTYYADSVKGRFTISRDNAKNTVYLQMNSLKPEDTAVYYCAADGYPLQLYNYWGQGTQVTVSS”, “low polyreactivity”.
With “QVQLVESGGGLVQAGGSLRLSCAASGSTFSLYAMGWYRQAPGKERELVARISYTDGSTYYADSVKGRFTISRDNAKNTVYLQMNSLKPEDTAVYYCAADAWYSYTLEDYWGQGTQVTVSS”, the “polyreactivity (PSR sort gate)” value is “low polyreactivity”.
In the case of “QVQLVESGGGLVQAGGSLRLSCAASGSTFSLYAMGWYRQSPGKETELVASITWGGGSTYADSVKRLFTISRDNAKNTVYLQMNSLKPEDPAVYYCARKYRYRVLYDFAYDHWGQGTEVTVSS”, the “polyreactivity (PSR sort gate)” value is “low polyreactivity”.
As to “QVQLVESGGGLVQAGGSLRLSCAASGSTFSLYGMGWYRQAPGKERELVAAIRRSGGRTYYADSVKGRFTISRDNAKNTVYLQMNSLKPEDTAVYYCAKSVPRYYSKSGLAYEFDYWGQGTQVTVSS”, the “polyreactivity (PSR sort gate)” value is on record as “low polyreactivity”.
With “QVQLVESGGGLVQAGGSLRLSCAASGSTFSLYTMGWYRQAPGKERELVAAITWTGGSTYYADSVKGRFTISRDNAKNTVYLQMNSLKPEDTAVYYCAAVSRLTGSRESQLIRSRMYYWGQGTQVTVSS”, the “polyreactivity (PSR sort gate)” value was “high polyreactivity”.
“QVQLVESGGGLVQAGGSLRLSCAASGSTFSNNTMGWYRQAPGKETELVATIDFNGGSTYYADSVKGRFTISRDNAKNTVYLQMNSLKPEDTAGYYCAAAEYLYTLPYGYWGQGTQVTVSS”: the “polyreactivity (PSR sort gate)” value is “low polyreactivity”.
Take “QVQLVESGGGLVQAGGSLRLSCAASGSTFSNNVMGGYIQAPGKERELVAAISSRGGSTYYADSVKGRFTISRDNAKNTVYLQMNSLKPEDTAVYYCAADQWYAFILGYPMVYWGQGTQVTVSS”: the “polyreactivity (PSR sort gate)” value is “high polyreactivity”.
Turning to “QVQLVESGGGLVQAGGSLRLSCAASGSTFSNYAMGWYRQAPGKERELVASISNGGSTNYADSVKGRFTISRDNAKNTVYLQMNSLKPEDTAVYNCNAESKAKYDYWGQGTQVTVSS”, the “polyreactivity (PSR sort gate)” value was “low polyreactivity”.
In the case of “QVQLVESGGGLVQAGGSLRLSCAASGSTFSPYAMGWYRQAPGKEMDFVAAITSSGGSTYYADSVKGRFTISRDNAKNTVYLQMNSLKPEDTALYYFAAEGYYTSTYDLFDYYYWGQGTQVTVSS”, the “polyreactivity (PSR sort gate)” value is “low polyreactivity”.
As to “QVQLVESGGGLVQAGGSLRLSCAASGSTFSQNAMGWYRQAPGKERELVDAITSGGITYYADSVKGRFTISRDNAKNTVYLQMNSLKPEDTAVYYCNADAIVSPYRLWTVTYYYWGQGTQVTVSS”, the “polyreactivity (PSR sort gate)” value is “low polyreactivity”.
To “QVQLVESGGGLVQAGGSLRLSCAASGSTFSRNAMGWYRQAPGKEREFVAAISTSGDSTYYADSVKGRFTISRDNAKNTVYLQMNSLKPEDTAVYYCADDGFWIAYQEGDYWGQGTQVTVSS” belongs “low polyreactivity”; to “QVQLVESGGGLVQAGGSLRLSCAASGSTFSRNAMGWYRQAPGKERELVAAISRRGGSTYYADSVKGRFTISRDNAKNTVYLQMNSLKPEDTAVYYCNRDSSYKNNYDYWGQGTQVTVSS”, “high polyreactivity”.
Under “QVQLVESGGGLVQAGGSLRLSCAASGSTFSRYAMGWSRQAPGKERELVAAISSSGGSTYYADSVKGRFTISRDNAKNTVYLQMNSLKPEDTAVYYCAARIWRTRRYDYWGQGTQVTVSS” stands “high polyreactivity”.
Turning to “QVQLVESGGGLVQAGGSLRLSCAASGSTFSRYAMGWSRQAPGKERELVAAISWSGGSTYYAVSVKGRFTISRDNAKNTVYLQMISLKPEDTAVYYCAAYTYSFRANHDYWGQGTQVTVSS”, the “polyreactivity (PSR sort gate)” value is on record as “high polyreactivity”.
Regarding “QVQLVESGGGLVQAGGSLRLSCAASGSTFSRYAMGWYRQAPGKERELVAAISGSGGSTSYADSVKGRFTISRDNAKNTVYLQMNSLKPEDTAVYYCAAYYLWYSRAFDYWGQGTQVTVSS”, the “polyreactivity (PSR sort gate)” value is “high polyreactivity”.
Turning to “QVQLVESGGGLVQAGGSLRLSCAASGSTFSRYAMGWYRQAPGKERELVAAISSSGGSTYYADSVKGRFTISRDTAKNTVYLQMNSLKPEDTAVYYCAVSHKYYGRRDYWGQGTQVTVSS”, the “polyreactivity (PSR sort gate)” value is listed as “high polyreactivity”.
On to “QVQLVESGGGLVQAGGSLRLSCAASGSTFSRYAMGWYRQAPGKERELVAAISWGGNTYYADSVKGRFTISRDNAKNTVYLQMNSLKPEDTAVYYCNRYSKLYNTMDYWGQGTQVTVSS”, for which the “polyreactivity (PSR sort gate)” value is listed as “high polyreactivity”.
Turning to “QVQLVESGGGLVQAGGSLRLSCAASGSTFSRYAMGWYRQAPGKERELVAAISYSGDSTYYADSVKGRFTISRDYAKNTVYLQMNSLKPEDTAVYYCNVYSHYRGYYWGQGTQVTVSS”, the “polyreactivity (PSR sort gate)” value is “high polyreactivity”.
For the sequence “QVQLVESGGGLVQAGGSLRLSCAASGSTFSRYAMGWYRQAPGKERELVAAITASGGSTYYADSVKGRFTISRDNAKNTVYLQMNRLKPEDTAVYYCAASYQVRYDYWGQGTQVTVSS”, the “polyreactivity (PSR sort gate)” value is reported as “high polyreactivity”.
Consider “QVQLVESGGGLVQAGGSLRLSCAASGSTFSRYAMGWYRQAPGKERELVAAITSSGGSSYYADSVKGRFTISRDNAKNTVYLQMNSLKPEDTAVYYCAASYQVRYDYWGQGTQVTVSS”, for which the “polyreactivity (PSR sort gate)” value is “high polyreactivity”.
Regarding “QVQLVESGGGLVQAGGSLRLSCAASGSTFSRYTMGWYRQAPGKERELVAAISKSGGSTYYADSVKGRFTISRDNAKNTVYLQMNSLKPEDTAVYYCAALVRAGTSLDYDYWGQGTEVTVSS”, the “polyreactivity (PSR sort gate)” value is “high polyreactivity”.
Under “QVQLVESGGGLVQAGGSLRLSCAASGSTFSSNAMGWYRQAPGKERELVAAINRRGGTYYADSVKGRFTISRDNAKNTVYLQMNSLKPEDTAVYYCAAASPYHEYDYWGQGTQVTVSS” stands “low polyreactivity”; under “QVQLVESGGGLVQAGGSLRLSCAASGSTFSSNGMGWYRPAPGKERELVAAITSGGSTNYADSVKGRFTISRDNAKNTVYLQMNSLKPEDTAVYYCNAERTAYGGGDYWGQGTQVTVSS”, “low polyreactivity”; under “QVQLVESGGGLVQAGGSLRLSCAASGSTFSSNPMGWYRQAPGKERELVAAISVNGGSTNYADSVKGRFTISRDNAKNTVYLQMNSLKPVDTAVYYCAAEPAKVAFYRGDYWGQGTQVTVSS”, “low polyreactivity”.
Consider “QVQLVESGGGLVQAGGSLRLSCAASGSTFSSYAMGRYRQAPGKERELVAVITRGTSTNYADSVKGRFTISRDNAKNTVYLQMNSLKPEDTAVYYCNARRGSRRFGYWGQGTQVNVSS”, for which the “polyreactivity (PSR sort gate)” value is given as “high polyreactivity”.
As for “QVQLVESGGGLVQAGGSLRLSCAASGSTFSSYAMGWYRQAPGKERELVAAISRRGGRTYYADSVKGRFTISRDNAKNTVYLQMNRLKPEDTAVYYCAADWGVRDEYYYWGQGTQVTVSS”, the “polyreactivity (PSR sort gate)” value was “high polyreactivity”.
To “QVQLVESGGGLVQAGGSLRLSCAASGSTFSSYAMGWYRQAPGKERELVAATYYADSVKGRFTISRDNAKNTVYLQMNSLKPEDTAVYYCNADNDYQGGKEYDYWGQGTQVTVSS” belongs “low polyreactivity”; to “QVQLVESGGGLVQAGGSLRLSCAASGSTFSSYVMGWYRKAPVKERELVAAISSIGGSTYFADSVKGRFTISRDNAKNTVYLQMNSLKPEDTAVYFCAAEPPGSTYEGGYWGQGTQVTVSS”, “low polyreactivity”.
Regarding “QVQLVESGGGLVQAGGSLRLSCAASGSTFSTNALGWYREAPGKELELVDDISSSSGRTYYADSVKGRFTISRDNAKNTVYLQMNSLKPEDTAVYYCAAANQGYRSGRKGVQRFDYWGQGTQVTVSS”, the “polyreactivity (PSR sort gate)” value is “high polyreactivity”.
